Measurements taken from US20230340055A1 (published 2023).
Where two headings read alike, the source gives them in different places. Blank lines part the entries; values can stand above or below the binder they belong to.

Experiments:
[1] = target: T1, Human IL-2 Receptor beta, Fc-Tag (Symansis, New Zealand) (human, UniProt P14784 27-240); experiment: SPR (Biacore T200), IL-2Rβ-Fc captured on anti-human IgG (Fc) CM5 chip, IL-2 as analyte, multi-cycle kinetics, 1:1 kinetic fit, 25 C
T1 construct: extracellular domain; Bought reagent; also called IL-2Rβ; IL-2Rβ-Fc; not shown: Fc-Tag (captured by anti-human IgG (Fc) antibody)
T1 sequence (looked up): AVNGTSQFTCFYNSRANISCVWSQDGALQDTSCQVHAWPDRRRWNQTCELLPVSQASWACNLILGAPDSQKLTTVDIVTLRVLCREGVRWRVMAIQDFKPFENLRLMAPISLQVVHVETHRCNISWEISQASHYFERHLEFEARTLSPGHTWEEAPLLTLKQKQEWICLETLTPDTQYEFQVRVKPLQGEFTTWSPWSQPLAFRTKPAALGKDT
Description: (§1) For the determination of binding kinetics to IL-2Rβ the following chip preparation was used: Human IL-2 Receptor beta, Fc-Tag (Symansis, New Zealand) was diluted in HBS-EP running buffer (GE Healthcare, 10 mM HEPES, 150 mM NaCl, 3 mM EDTA, 0.05% Surfactant P20, pH 7.4) to around 0.80 µg/mL and immobilized at a flow rate of 50 µL/min for 60 s to achieve 140 - 180 response units (RU).
(§2) (50 µL/min flow rate, 60 s contact time, 300 s dissociation time). Double referenced data (subtracted data from the reference flow cell and the buffer only samples) was analysed via a kinetic fit (1:1 binding model) to determine KD, kₐ and kd. Regeneration after each cycle was performed with 3 M MgCl₂.

[2] = target: T2, Human IL-2 Receptor alpha, Fc-Tag (Symansis, New Zealand) (human, UniProt P01589 22-240); experiment: SPR; KD to IL-2Rα divided by KD to IL-2Rβ of the same compound
T2 construct: extracellular domain; Bought reagent; also called IL-2Rα; IL-2Rα-Fc; not shown: Fc-Tag (captured by anti-human IgG (Fc) antibody)
T2 sequence (looked up): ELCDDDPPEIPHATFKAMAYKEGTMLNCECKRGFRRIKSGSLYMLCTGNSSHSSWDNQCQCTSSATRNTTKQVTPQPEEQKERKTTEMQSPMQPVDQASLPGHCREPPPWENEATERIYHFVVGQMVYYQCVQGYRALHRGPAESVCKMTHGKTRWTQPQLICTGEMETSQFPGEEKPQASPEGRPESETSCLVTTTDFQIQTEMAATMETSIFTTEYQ
Description: as §1, with “IL-2Rα” for “IL-2Rβ”, “alpha,” for “beta,”, “approx. 0.67” for “around 0.80”, “80” for “140”, “100” for “180”
as §1, §2

[3] = target: T2, Human IL-2 Receptor alpha, Fc-Tag …; experiment: calculated from the SPR KD values of Example 7; reference protein 5a
Description: as §1, with “IL-2Rα” for “IL-2Rβ”, “alpha,” for “beta,”, “approx. 0.67” for “around 0.80”, “80” for “140”, “100” for “180”
as §1, §2

[4] = target: T3, IL-2Rβγ (dimeric intermediate affinity IL-2 receptor), human, on cells (human, UniProt P14784 27-551; P31785 23-369); experiment: cell-based or functional assay
T3 sequence (looked up) 1: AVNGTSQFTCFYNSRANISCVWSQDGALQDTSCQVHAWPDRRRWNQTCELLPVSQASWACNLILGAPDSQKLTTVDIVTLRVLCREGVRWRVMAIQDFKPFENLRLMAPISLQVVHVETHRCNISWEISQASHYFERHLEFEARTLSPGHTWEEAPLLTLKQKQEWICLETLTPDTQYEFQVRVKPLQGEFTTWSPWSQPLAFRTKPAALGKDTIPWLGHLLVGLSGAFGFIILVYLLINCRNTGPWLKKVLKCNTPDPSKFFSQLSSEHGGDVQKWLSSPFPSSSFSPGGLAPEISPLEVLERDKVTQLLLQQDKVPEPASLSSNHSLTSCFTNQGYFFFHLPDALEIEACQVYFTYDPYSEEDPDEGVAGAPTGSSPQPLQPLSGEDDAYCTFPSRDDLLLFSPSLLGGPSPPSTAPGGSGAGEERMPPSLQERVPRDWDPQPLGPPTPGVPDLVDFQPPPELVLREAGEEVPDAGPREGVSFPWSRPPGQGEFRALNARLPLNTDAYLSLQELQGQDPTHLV
T3 sequence (looked up) 2: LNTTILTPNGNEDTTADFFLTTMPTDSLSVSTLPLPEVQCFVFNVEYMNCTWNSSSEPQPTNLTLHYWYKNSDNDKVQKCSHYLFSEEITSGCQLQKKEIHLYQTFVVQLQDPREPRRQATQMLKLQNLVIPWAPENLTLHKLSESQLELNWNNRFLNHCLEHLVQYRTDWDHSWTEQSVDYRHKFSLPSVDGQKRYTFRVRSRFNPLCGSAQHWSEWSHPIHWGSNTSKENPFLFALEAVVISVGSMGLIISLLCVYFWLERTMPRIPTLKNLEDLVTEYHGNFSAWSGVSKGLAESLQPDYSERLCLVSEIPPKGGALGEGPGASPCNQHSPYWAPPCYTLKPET

[5] = target: T4, IL-2Rαβγ (trimeric high-affinity IL-2 receptor), human, on cells (human, UniProt P01589 22-272; P14784 27-551; P31785 23-369); experiment: cell-based or functional assay
T4 sequence (looked up) 1: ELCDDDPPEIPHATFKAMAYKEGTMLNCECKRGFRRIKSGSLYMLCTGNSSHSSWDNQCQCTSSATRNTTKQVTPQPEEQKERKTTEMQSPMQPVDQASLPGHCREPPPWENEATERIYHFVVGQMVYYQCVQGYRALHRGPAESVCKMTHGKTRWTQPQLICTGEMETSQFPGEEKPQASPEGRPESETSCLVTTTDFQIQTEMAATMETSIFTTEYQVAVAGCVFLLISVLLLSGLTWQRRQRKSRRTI
T4 sequence (looked up) 2: T3 sequence (looked up) 1
T4 sequence (looked up) 3: T3 sequence (looked up) 2

[6] = target: T3, IL-2Rβγ (dimeric intermediate affinity …); experiment: cell-based or functional assay; remark: listed apart in the source
[7] = target: T5, IL-2-Rα/β/γ on the murine CTLL-2 T lymphocyte cell line (murine, UniProt P01590 22-268; P16297 27-539; P34902 23-369); experiment: cell-based or functional assay
T5 sequence (looked up) 1: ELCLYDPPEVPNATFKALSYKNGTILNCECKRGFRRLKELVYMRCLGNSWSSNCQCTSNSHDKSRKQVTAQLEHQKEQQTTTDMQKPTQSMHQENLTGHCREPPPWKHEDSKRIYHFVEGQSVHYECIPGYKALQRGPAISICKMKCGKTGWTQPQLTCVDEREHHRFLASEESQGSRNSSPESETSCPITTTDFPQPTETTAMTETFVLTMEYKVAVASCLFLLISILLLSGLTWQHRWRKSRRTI
T5 sequence (looked up) 2: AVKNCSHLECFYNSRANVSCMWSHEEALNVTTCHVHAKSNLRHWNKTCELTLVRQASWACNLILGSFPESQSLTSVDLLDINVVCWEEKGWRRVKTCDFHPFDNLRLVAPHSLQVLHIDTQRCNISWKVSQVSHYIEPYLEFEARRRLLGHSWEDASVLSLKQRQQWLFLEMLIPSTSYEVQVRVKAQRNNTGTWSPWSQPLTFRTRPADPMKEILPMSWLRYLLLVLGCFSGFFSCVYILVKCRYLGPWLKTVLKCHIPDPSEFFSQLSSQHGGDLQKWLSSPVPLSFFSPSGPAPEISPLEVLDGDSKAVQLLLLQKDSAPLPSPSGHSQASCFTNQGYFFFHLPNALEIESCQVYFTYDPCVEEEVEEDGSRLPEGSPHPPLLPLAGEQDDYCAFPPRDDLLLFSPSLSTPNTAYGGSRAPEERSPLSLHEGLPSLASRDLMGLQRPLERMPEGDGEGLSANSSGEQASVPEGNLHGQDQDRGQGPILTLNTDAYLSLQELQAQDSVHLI
T5 sequence (looked up) 3: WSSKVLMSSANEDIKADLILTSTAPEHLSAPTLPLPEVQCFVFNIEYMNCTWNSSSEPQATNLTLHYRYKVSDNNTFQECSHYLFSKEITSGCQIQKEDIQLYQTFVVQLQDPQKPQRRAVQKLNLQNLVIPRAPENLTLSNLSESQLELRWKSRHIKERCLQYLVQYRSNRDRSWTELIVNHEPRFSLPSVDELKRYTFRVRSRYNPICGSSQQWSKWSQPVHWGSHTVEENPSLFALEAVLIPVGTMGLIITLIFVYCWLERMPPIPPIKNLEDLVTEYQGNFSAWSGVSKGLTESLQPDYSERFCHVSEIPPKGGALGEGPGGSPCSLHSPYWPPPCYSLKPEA

[8] = target: T3, IL-2Rβγ (dimeric intermediate affinity …); experiment: cell-based or functional assay; remark: listed apart in the source
[9] = target: T4, IL-2Rαβγ (trimeric high-affinity IL-2 …); experiment: cell-based or functional assay; remark: listed apart in the source
[10] = target: T3, IL-2Rβγ (dimeric intermediate affinity …); experiment: cell-based or functional assay; remark: listed apart in the source
[11] = target: T4, IL-2Rαβγ (trimeric high-affinity IL-2 …); experiment: cell-based or functional assay; remark: listed apart in the source

Kd [1]: 993 nM
KD-Ratio (α/β) [2]: > 4.02
ratio of Ratio protein 1f to Ratio protein 5a (KD to IL-2Rα / KD to IL-2Rβ) [3]: > 200
Ave EC50, pSTAT5 MFI, CD8+ T cells (human whole blood) [4]: 54.8 ng/ml
Ave EC50, pSTAT5 MFI, NK cells (human whole blood) [4]: 7.35 ng/ml
Fold reduction in potency vs WT-IL2 (1d), pSTAT5 MFI, CD8+ T cells [4]: 2.13 fold
Fold reduction in potency vs WT-IL2 (1d), pSTAT5 MFI, NK cells [4]: 1.22 fold
Ave EC50, pSTAT5 MFI, T regulatory cells (human whole blood) [5]: 33.5 ng/ml
Fold reduction in potency vs WT-IL2 (1d), pSTAT5 MFI, T regulatory cells [5]: 372 fold
B1: protein 1f (ligand)
chain: APTSSSTKKTQLQLEHLLLDLQMILNGINNYKNPKLTFGNSTKFYMPKKATELKHLQCLEEELKPLEEVLNLAQSKNFHLRPRDLISNINVIVLELKGSETTFMCEYADETATIVEFLNRWITFSQSIISTLT
modifications: N-glycosylated at the introduced N-glycosylation site (motif FGNST, peptide LTFGNSTK; heterogeneous glycans); heterogeneous O-glycosylation at the wildtype O-glycosylation site
notes: also called N-glycosylated IL2 (1f)

EC50 HH cells, STAT5 phosphorylation [6]: 0.0398 µg/mL
EC50 CTLL-2, STAT5 phosphorylation [7]: 1.57 µg/mL
Ratio (E50 CTLL-2 cells/EC50 HH cell) [7]: 39.5
B2: conjugate release mixture 8 (other)
chain: B1 chain
modifications: glycosylated as protein 6; residual conjugate 7 in the mixture carries one 40 kDa mPEG-linker on a primary amine of the N-terminus or a lysine side chain

Ave EC50, pSTAT5 percent positive, CD8+ T cells (human whole blood) [8]: 1.69 ng/ml
Ave EC50, pSTAT5 percent positive, NK cells (human whole blood) [8]: 0.371 ng/ml
Fold reduction in potency vs WT-IL2 (1d), pSTAT5 percent positive, CD8+ T cells [8]: 1.58 fold
Fold reduction in potency vs WT-IL2 (1d), pSTAT5 percent positive, NK cells [8]: 2.01 fold
Ave EC50, pSTAT5 percent positive, T regulatory cells (human whole blood) [9]: 1.06 ng/ml
Fold reduction in potency vs WT-IL2 (1d), pSTAT5 percent positive, T regulatory cells [9]: 598 fold
Ave EC50, pSTAT5 MFI, CD8+ T cells (human whole blood) [10]: 12.6 ng/ml
Ave EC50, pSTAT5 MFI, NK cells (human whole blood) [10]: 3.07 ng/ml
Fold reduction in potency vs WT-IL2 (1d), pSTAT5 MFI, CD8+ T cells [10]: 1.44 fold
Fold reduction in potency vs WT-IL2 (1d), pSTAT5 MFI, NK cells [10]: 1.34 fold
Ave EC50, pSTAT5 MFI, T regulatory cells (human whole blood) [11]: 7.93 ng/ml
Fold reduction in potency vs WT-IL2 (1d), pSTAT5 MFI, T regulatory cells [11]: 437 fold
B3: protein 1a (ligand)
chain: APTSSSTKKTQLQLEHLLLDLQMILNGINNYKNPKLTFGNSTKFYMPKKATELKHLQCLEEELKPLEEVLNLAQSKNFHLRPRDLISNINVIVLELKGSETTFMCEYADETATIVEFLNRWITFSQSIISTLTHHHHHH
modifications: N-glycosylated (at least 90% by SDS-PAGE shift, removed by PNGase F)
